Test results taken from patent US20260151519A1 (AKTIS ONCOLOGY, published 2026).
Bridges are numbered along the chain shown (N, C = ends). Primed or numbered codes have the meaning given here. Where no end group is shown, it is not given here. [ ]: non-standard residue; d: D form. The star is where a group is joined. DOTA = O=C(O)CN1CCN(CC(=O)O)CCN(CC(=O)*)CCN(CC(=O)O)CC1; Biotin = O=C1N[C@H]2[C@H](CS[C@H]2CCCCC(=O)*)N1; hydroxy‑norleucine = hydroxy-norleucine residue; Cit = NC(=O)NCCC[C@H](N)C(=O)O; PEG4″ = 4(ethylene glycol); PEG12′ = not defined here; Nle = CCCC[C@H](N)C(=O)O

T1: Human Nectin-4 (human, UniProt Q96NY8 32-349, limits assumed)
T1 construct: Protein immobilised on the SPR chip; also called target protein
T1 sequence: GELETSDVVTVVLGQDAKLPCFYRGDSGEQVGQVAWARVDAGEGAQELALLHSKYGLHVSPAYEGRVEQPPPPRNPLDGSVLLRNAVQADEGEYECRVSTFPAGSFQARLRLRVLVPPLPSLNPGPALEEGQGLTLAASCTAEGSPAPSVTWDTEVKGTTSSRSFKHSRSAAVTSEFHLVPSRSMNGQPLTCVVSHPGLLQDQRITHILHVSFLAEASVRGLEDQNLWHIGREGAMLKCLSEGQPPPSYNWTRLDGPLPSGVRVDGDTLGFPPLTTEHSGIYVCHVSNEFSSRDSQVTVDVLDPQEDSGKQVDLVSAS


Biological target: T1, Human Nectin-4
Assay: Table 2B (DELFIA or SPR)

Binder	Kd
{Biotin-PEG4″}-CEYDEEFFTALARLRGGDICYYIQA[hydroxy‑norleucine]FQYLPGLCIEEILDNLGCS-OH (designed binder, disulfide 1-34, 20-44) [C164]	5 nM
{Biotin-PEG4″}-CEYDEEFFTALKRLRGGDICEYIQA[Nle]FQYLPGLCIEEILDNLGCS-OH (designed binder, disulfide 1-34, 20-44) [C199]	3.5 nM
{Biotin-PEG4″}-CEYDEEFFTALA[Cit]LRGGDICEYIQAKFQYLPGLCIEEILDNLGCS-OH (designed binder, disulfide 1-34, 20-44) [C171]	2.2 nM
{Biotin-PEG4″}-CEYDEEFFTALA[Cit]LRGGDICYYIQAKFQYLPGLCIEEILDNLGCS-OH (designed binder, disulfide 1-34, 20-44) [C163]	1.9 nM
{Biotin-PEG4″}-CEYDEEFFTALA[Cit]LRGGDICSYIQAKFQYLPGLCIEEILDNLGCS-OH (designed binder, disulfide 1-34, 20-44) [C175]	2.3 nM
{Biotin-PEG4″}-CEYDEEFFTALA[Cit]LRGDDICSYIQAKFQYLPGLCIEEILDNLGCS-OH (designed binder, disulfide 1-34, 20-44) [C172]	1.8 nM
{Biotin-PEG4″}-CDYDEEFFTALA[Cit]LRGGDICEYIQAKFQYLPGLCIEEILDNLGCS-OH (designed binder, disulfide 1-34, 20-44) [C176]	1.3 nM
Ac-CEYDEEFFDGLKRLRGGDICYYIKKKFKKVPDLCIEEILDKLGC-OH (designed binder, disulfide 1-34, 20-44) [C27]	9.85 nM
Ac-CEYDEKFFTGLKRLRGGDICYYIKKKFKKVPDLCIEEILDKLGC-OH (designed binder, disulfide 1-34, 20-44) [C46]	2.28 nM
Ac-CEYDEEFFKGLKRLRGGDICYYIKKKFKKVPKLCIEEILDKLGC-OH (designed binder, disulfide 1-34, 20-44) [C80]	2.7 nM
Ac-CEYDEEFFLGLKRLRGGDICYYIKKKFKKVPELCIEEILEKLGC-OH (designed binder, disulfide 1-34, 20-44) [C68]	2.66 nM
Ac-CEYDEEFFLGLKRLRGGDICYYIKKKFKKVPDLCIEEILDKLGC-OH (designed binder, disulfide 1-34, 20-44) [C34]	3.17 nM
Ac-CEYDEEFFTDLKRLRGGDICYYIKKKFKKVPKLCIEEILDKLGC-OH (designed binder, disulfide 1-34, 20-44) [C52]	5.24 nM
Ac-CEYDEEFFTALKRLRGGDICYYIKKKFKKVPKLCIEEILDKLGC-OH (designed binder, disulfide 1-34, 20-44) [C57]	0.29 nM
Ac-CEYDEEFFTGLKRLRGGDICYYIKKKFKKVPELCIEEILKKLGC-OH (designed binder, disulfide 1-34, 20-44) [C65]	2.21 nM
Ac-CEYDEEFFKALKRLRGGDICYYIKKKFKKVPKLCIEEILDKLGC-OH (designed binder, disulfide 1-34, 20-44) [C81]	0.43 nM
Ac-CEYDEEFFLALKRLRGGDICYYIKKKFKKVPKLCIEEILEKLGC-OH (designed binder, disulfide 1-34, 20-44) [C77]	0.58 nM
Ac-CEYDEEFFSGLKRLRGGDICYYIKKKFKKVPDLCIEEILDKLGC-OH (designed binder, disulfide 1-34, 20-44) [C28]	5.29 nM
Ac-CEYDEEFFTGLKRLRGGDICYYIKKKFKKVPELCIEEILDKLGC-OH (designed binder, disulfide 1-34, 20-44) [C32]	3.26 nM
Ac-CEYDEEFFTALKRLRGGDICYYIKKKFKKVPKLCIEEILEKLGC-OH (designed binder, disulfide 1-34, 20-44) [C79]	0.38 nM
Ac-CEYDEEFFTGLKRLRGGDICYYIKKKFKKVPKLCIEEILDKLGC-OH (designed binder, disulfide 1-34, 20-44) [C31]	1.31 nM
Ac-CEYDEEFFKALKRLRGGDICYYIKKKFKKVPKLCIEEILEKLGC-OH (designed binder, disulfide 1-34, 20-44) [C76]	0.52 nM

Binder	Kd
Ac-CEYDEQFFTGLKRLRGGDICYYIKKKFKKVPKLCIEEILDKLGC-OH (designed binder, disulfide 1-34, 20-44) [C71]	2.85 nM
Ac-CEYDEEFFTGLKRLRGGDICYYIKKKFKKVPDLCIEEILDKLGC-OH (designed binder, disulfide 1-34, 20-44) [C29]	3.91 nM
Ac-CEYDEQFFTGLKRLRGGDICYYIKKKFKKVPDLCIEEILDKLGC-OH (designed binder, disulfide 1-34, 20-44) [C49]	1.93 nM
Ac-CEYDEEFFKGLKRLRGGDICYYIKKKFKKVPKLCIEEILEKLGC-OH (designed binder, disulfide 1-34, 20-44) [C69]	1.86 nM
Ac-CEYDEEFFTGLKRLRGGDICYYIKKKFKKVPDLCIEEILKKLGC-OH (designed binder, disulfide 1-34, 20-44) [C44]	3.14 nM
Ac-CEYDEEFFTGLKRLRGGDICYYIKKKFKKVPELCIEEILEKLGC-OH (designed binder, disulfide 1-34, 20-44) [C66]	2.63 nM
Ac-CEYDEKFFTGLKRLRGGDICYYIKKKFKKVPKLCIEEILDKLGC-OH (designed binder, disulfide 1-34, 20-44) [C70]	2.2 nM
Ac-CEYDEEFFLGLKRLRGGDICYYIKKKFKKVPELCIEEILKKLGC-OH (designed binder, disulfide 1-34, 20-44) [C67]	2.64 nM
Ac-CEYDEEFFLALKRLRGGDICYYIKKKFKKVPKLCIEEILDKLGC-OH (designed binder, disulfide 1-34, 20-44) [C78]	0.49 nM
Ac-CEYDEEFFQGLKRLRGGDICYYIKKKFKKVPDLCIEEILDKLGC-OH (designed binder, disulfide 1-34, 20-44) [C33]	3.47 nM
Ac-CEYDEEFFTGLKRLRGGTICYYIKKKFKKVPDLCIEEILDKLGC-OH (designed binder, disulfide 1-34, 20-44) [C41]	5.6 nM
Ac-CEYDEEFFLGLKRLRGGDICYYIKKKFKKVPDLCIEEILKKLGC-OH (designed binder, disulfide 1-34, 20-44) [C64]	3.8 nM
Ac-CEYDEEFFLGLKRLRGGDICYYIKKKFKKVPKLCIEEILEKLGC-OH (designed binder, disulfide 1-34, 20-44) [C61]	1.79 nM
Ac-CEYDEEFFTTLKRLRGGDICYYIKKKFKKVPKLCIEEILDKLGC-OH (designed binder, disulfide 1-34, 20-44) [C55]	3.39 nM
Ac-CEYDEEFFTLLKRLRGGDICYYIKKKFKKVPKLCIEEILDKLGC (designed binder, disulfide 1-34, 20-44) [C56]	3.88 nM
Ac-CEYDEEFFEGLKKLRGGDICYYIKKKFKKVPDLCIEEILDKLGC-OH (designed binder, disulfide 1-34, 20-44) [C30]	24.9 nM
Ac-CEYDEEFFLGLKRLRGGDICYYIKKKFKKVPKLCIEEILKKLGC-OH (designed binder, disulfide 1-34, 20-44) [C63]	1.97 nM
Ac-CEYDEEFFLGLKRLRGGDICYYIKKKFKKVPKLCIEEILDKLGC-OH (designed binder, disulfide 1-34, 20-44) [C58]	1.81 nM
Ac-CEYDEEFFLGLKRLRGGDICYYIKKKFKKVPDLCIEEILEKLGC-OH (designed binder, disulfide 1-34, 20-44) [C60]	3.17 nM
{DOTA-PEG12′}-CEYDEEFFAGLKRLRGGDICYYIKKKFDKVPDLCIEEILDKLGC-OH (designed binder, disulfide 1-34, 20-44) [C51]	8.37 nM
Ac-CEYDEEFFTGLKRLRGGDICYYIKKKFKKVPDLCIEEILEKLGC-OH (designed binder, disulfide 1-34, 20-44) [C45]	3.29 nM
